Tested on: MBP-SpC33Leu fusion protein

enterokinase
cleavage of the fusion protein, MALDI-MS: No detectable amounts of MBP-linker-SP-C33(Leu) were observed, suggesting that the applied proteolytic reaction conditions result in a quantitative process

— US20130303726
